Assay results as given in patent US20110038881A1, “PROGNOSTIC ASSAY FOR DETERMINING T CELL RESPONSE TO HLA ANTIGENS AND USE THEREOF IN FIELD OF TISSUE TRANSPLANTATION” (priority 2007, published 2011).

The binders below were run against HLA-DRB1*0301 (human) (assay: competition binding). Conditions: modification not given.

Binder	IC50
TCVEWLRRYLENGKE [p34*]	> 100 µM
MRYFFTSVSRPGRGE [p2*]	2.84 µM
IAVGYVDDTQFVRFD [p5]	0.316 µM
LTWQRDGEDQTQDTE [p43]	97.5 µM
EDLRSWTAADMAAQT [p27]	> 100 µM
THMTHHAVSDHEATL [p38]	> 100 µM
ETLQRTDAPKTHMTH [p37]	> 100 µM
RRYLENGKETLQRTD [p36]	> 100 µM
RAYLEGTCVEWLRRY [p33]	34.9 µM

Continued, values first:

IC50	Binder
> 100 µM	TELVETRPAGDGTFQ [p44]
0.98 µM	AAVVVPSGQEQRYTC [p47]
> 100 µM	GTFQKWAAVVVPSGQ [p45*]
> 100 µM	LTLRWEPSSQPTIPI [p51*]

What follows are binders tested against HLA-DRB1*1501 (human) (assay: competition binding). Conditions: modification not given.

Binder	IC50
TCVEWLRRYLENGKE [p34*]	22.2 µM
MRYFFTSVSRPGRGE [p2*]	1.17 µM
IAVGYVDDTQFVRFD [p5]	2.97 µM
LTWQRDGEDQTQDTE [p43]	> 100 µM
EDLRSWTAADMAAQT [p27]	0.648 µM
THMTHHAVSDHEATL [p38]	> 100 µM
ETLQRTDAPKTHMTH [p37]	> 100 µM
RRYLENGKETLQRTD [p36]	69 µM
RAYLEGTCVEWLRRY [p33]	4.74 µM

Continued, values first:

IC50	Binder
0.283 µM	IPIVGIIAGLVLFGA [p53*]
> 100 µM	TELVETRPAGDGTFQ [p44]
> 100 µM	AAVVVPSGQEQRYTC [p47]
0.474 µM	GTFQKWAAVVVPSGQ [p45*]
2.44 µM	LTLRWEPSSQPTIPI [p51*]

Each binder was assayed against HLA-DRB5*0101 (human) (assay: competition binding). Conditions: modification not given.

IC50	Binder
0.004 µM	MRYFFTSVSRPGRGE [p2*]
0.798 µM	IAVGYVDDTQFVRFD [p5]
4.1 µM	LTWQRDGEDQTQDTE [p43]

Each binder was assayed against HLA-DRB1*0701 (human) (assay: competition binding). Conditions: modification not given.

Binder	IC50
TCVEWLRRYLENGKE [p34*]	> 100 µM
MRYFFTSVSRPGRGE [p2*]	0.045 µM
IAVGYVDDTQFVRFD [p5]	3.1 µM
LTWQRDGEDQTQDTE [p43]	> 100 µM
EDLRSWTAADMAAQT [p27]	> 100 µM
THMTHHAVSDHEATL [p38]	53.7 µM
ETLQRTDAPKTHMTH [p37]	3.13 µM
RRYLENGKETLQRTD [p36]	> 100 µM
RAYLEGTCVEWLRRY [p33]	0.637 µM

Other lines, results leading:

IC50	Binder
0.179 µM	IPIVGIIAGLVLFGA [p53*]
2.16 µM	TELVETRPAGDGTFQ [p44]
42.2 µM	AAVVVPSGQEQRYTC [p47]
0.072 µM	LTLRWEPSSQPTIPI [p51*]

The binders below were run against HLA-DRB1*1101 (human) (assay: competition binding). Conditions: modification not given.

Binder	IC50
TCVEWLRRYLENGKE [p34*]	0.245 µM
MRYFFTSVSRPGRGE [p2*]	0.003 µM
IAVGYVDDTQFVRFD [p5]	9.22 µM
LTWQRDGEDQTQDTE [p43]	> 100 µM
EDLRSWTAADMAAQT [p27]	> 100 µM
THMTHHAVSDHEATL [p38]	> 100 µM
ETLQRTDAPKTHMTH [p37]	> 100 µM
RRYLENGKETLQRTD [p36]	0.738 µM
RAYLEGTCVEWLRRY [p33]	0.872 µM

Now from value to binder:

IC50	Binder
> 100 µM	IPIVGIIAGLVLFGA [p53*]
8.75 µM	TELVETRPAGDGTFQ [p44]
68.9 µM	AAVVVPSGQEQRYTC [p47]
0.34 µM	GTFQKWAAVVVPSGQ [p45*]
> 100 µM	LTLRWEPSSQPTIPI [p51*]

These binders were tested against HLA-DRB3*0101 (human) (assay: competition binding). Conditions: modification not given.

Binder	IC50
TCVEWLRRYLENGKE [p34*]	58.1 µM
MRYFFTSVSRPGRGE [p2*]	> 100 µM
EDLRSWTAADMAAQT [p27]	1.88 µM
ETLQRTDAPKTHMTH [p37]	27.6 µM
RRYLENGKETLQRTD [p36]	4.85 µM
RAYLEGTCVEWLRRY [p33]	8.94 µM

Next, values leading:

IC50	Binder
1.53 µM	AAVVVPSGQEQRYTC [p47]
0.045 µM	GTFQKWAAVVVPSGQ [p45*]
29 µM	LTLRWEPSSQPTIPI [p51*]

Each binder was assayed against HLA-DRB1*1301 (human) (assay: competition binding). Conditions: modification not given.

Binder	IC50
TCVEWLRRYLENGKE [p34*]	5 µM
MRYFFTSVSRPGRGE [p2*]	0.399 µM
IAVGYVDDTQFVRFD [p5]	> 100 µM
LTWQRDGEDQTQDTE [p43]	> 100 µM
EDLRSWTAADMAAQT [p27]	> 100 µM
THMTHHAVSDHEATL [p38]	> 100 µM
ETLQRTDAPKTHMTH [p37]	> 100 µM
RRYLENGKETLQRTD [p36]	11.6 µM
RAYLEGTCVEWLRRY [p33]	13.4 µM

Results, then the binder that gave them:

IC50	Binder
1.37 µM	IPIVGIIAGLVLFGA [p53*]
> 100 µM	TELVETRPAGDGTFQ [p44]
7.48 µM	AAVVVPSGQEQRYTC [p47]
> 100 µM	GTFQKWAAVVVPSGQ [p45*]
> 100 µM	LTLRWEPSSQPTIPI [p51*]

These binders were tested against HLA-DRB1*0401 (human) (assay: competition binding). Conditions: modification not given.

Binder	IC50
TCVEWLRRYLENGKE [p34*]	> 100 µM
IAVGYVDDTQFVRFD [p5]	31 µM
LTWQRDGEDQTQDTE [p43]	> 100 µM
EDLRSWTAADMAAQT [p27]	> 100 µM
THMTHHAVSDHEATL [p38]	> 100 µM
ETLQRTDAPKTHMTH [p37]	60 µM
RRYLENGKETLQRTD [p36]	28 µM
RAYLEGTCVEWLRRY [p33]	9.17 µM

Other lines, results leading:

IC50	Binder
> 100 µM	IPIVGIIAGLVLFGA [p53*]
70.4 µM	TELVETRPAGDGTFQ [p44]
> 100 µM	AAVVVPSGQEQRYTC [p47]
0.099 µM	GTFQKWAAVVVPSGQ [p45*]
0.497 µM	LTLRWEPSSQPTIPI [p51*]

The binders below were run against HLA-DRB1*0101 (human) (assay: competition binding). Conditions: modification not given.

Binder	IC50
TCVEWLRRYLENGKE [p34*]	> 100 µM
MRYFFTSVSRPGRGE [p2*]	0.002 µM
IAVGYVDDTQFVRFD [p5]	2.77 µM
LTWQRDGEDQTQDTE [p43]	> 100 µM
EDLRSWTAADMAAQT [p27]	> 100 µM
THMTHHAVSDHEATL [p38]	8 µM
ETLQRTDAPKTHMTH [p37]	2 µM
RRYLENGKETLQRTD [p36]	0.704 µM
RAYLEGTCVEWLRRY [p33]	0.025 µM

Now from value to binder:

IC50	Binder
0.026 µM	IPIVGIIAGLVLFGA [p53*]
4.47 µM	TELVETRPAGDGTFQ [p44]
2.24 µM	AAVVVPSGQEQRYTC [p47]
0.004 µM	GTFQKWAAVVVPSGQ [p45*]
0.525 µM	LTLRWEPSSQPTIPI [p51*]

These binders were tested against HLA-DRB4*0101 (human) (assay: competition binding). Conditions: modification not given.

IC50	Binder
> 100 µM	MRYFFTSVSRPGRGE [p2*]
> 100 µM	IAVGYVDDTQFVRFD [p5]
26 µM	LTLRWEPSSQPTIPI [p51*]
12.6 µM	RAYLEGTCVEWLRRY [p33]
